This note sets out measurements from PMC7544224 (Nucleic Acids Research, 2020).

Substitutions are numbered along the chain they refer to.

In data set [1] the target is T1, YefM (antitoxin; in heterohexamer, YoeB2-YefM4);YoeB (toxin; in heterohexamer, YoeB2-YefM4) (Staphylococcus aureus …, UniProt Q2G285;Q2G286 1-83;1-88, |).
T1 sequence 1: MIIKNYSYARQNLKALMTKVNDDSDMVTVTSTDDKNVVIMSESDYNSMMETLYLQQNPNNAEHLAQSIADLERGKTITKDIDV
T1 sequence 2: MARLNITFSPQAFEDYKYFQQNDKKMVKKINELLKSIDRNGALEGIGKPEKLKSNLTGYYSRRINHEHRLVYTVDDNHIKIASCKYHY
Description: ITC.

The target in data set [2] is T2, YefM antitoxin without tag (pET22b-yefM), as in the heterohexamer (S. aureus (NCTC8325 strain), UniProt A0A0B4ND47 1-83).
T2 sequence (looked up): T1 sequence 1
Description: SEC-MALS. (SEC sorts molecules by how far they enter the pores of the column.)

The data set “SEC-MALS” concerns the molecule itself. Description: SEC-MALS.

B1: promoter core mutant (ATTGTACA to ATTTTAAA) (dsDNA)
DNA 1: TTATTTTAAAGATATTTTTAAAATTG
DNA 2: CAATTTTAAAAATATCTTTAAAATAA
Turning to B1, the binding result in data set [1] is given as “no binding”.

B2: promoter flank mutant (ATTGTACA to AGCGTACG) (dsDNA)
DNA 1: TTAGCGTACGGATATGCGTACGCTTG
DNA 2: CAAGCGTACGCATATCCGTACGCTAA
With B2, the binding result in data set [1] was “no binding”.

B3: YoeB toxin with N-terminal 6xHis tag (pET28a-yoeB) (natural protein)
chain: T1 sequence 2 with D23N
Consider B3, for which, in data set [2], the “stoichiometry N” value worked out at 0.5 YoeB per YefM.

B4: YefM antitoxin, expressed alone (natural protein, S. aureus (NCTC8325 strain), UniProt A0A0B4ND47 1-83, looked up)
chain: T1 sequence 1
With B4, in the data set “SEC-MALS”, the “stoichiometry N” value worked out at 2.

Usually stoichiometry N stands for a count of units in the complex or per binding partner.
